The nature of the data set: soluble on expression in E. coli; label from the status in PepcDB or PDB records.
Consider “MGSDKIHHHHHHMHTEVQEYGLSLRWVRFIFAAKEILINMVYKVFLSLCIGLALSASAALHAQKAVSGHAPIQVETPARSSGQKHVLQLVTPKLETVRIGIIGLGMRGPGAVERFSKIPGTQIVALCDVLPERVKKTQEILVKAGLPEAAAYSGSEDAWKKLCEREDIDLVYIVTDWKTHAEMGVYAMEHGKHAAIEVPAAMTLEEIWKLIDTSERTRKHCIQLENCVYDFFELTTLNMAHQGVFGEILHAEGAYIHNLEDFWPYYWNNWRLDYNRKHRGDVYATHGMGPACQLLDIHRGDRMKTIVAMDTKAVNGPAYIKNKTGEVVADFQNGDQTTSLIRTEKGKTLLIQHNVMTPRPYSRKYQAVGTDGFADKYPLEMYCLRPAQVDSDIAPDHEKLNAHGPVSEEVKKALMEKYKHPIHRELEETAKKVGGHGGMDYIMDYRLIYCLRNGLPLDMDVYDLAEWCCLAELSRISIENGSAPVAIPDFTRGNWDKVKGYRHAMAE”, for which the “soluble on expression in E. coli” value is listed as “not soluble”.
Then “MSLTRKKYTYKMRSYINASHAIRWEAGIGSEHPHTWEIICEIVSSNDHMIKFEDIEEVITETISGLSGKFLNTIAPFDKINPTLENLTNYLFDMITDSLKKINCKLIRIEVGESPTRFYCISLDEGHHHHHH”, with “soluble”; and “MNDYSTTRDRVEHYFDRTATHTWERLTSSAPVSRIRQTVREGRDTMRAKMLWRLPKDLTGLRVLDAGCGAGQMTAELAARGAQVMAVDISPQLVEIARKRLPPEHQDRVTFASGDMLADDLGRFDYVVAMDSLIYYTDADIAAALDRLGARTRHSVVFTVAPRTPFLMAFWTMGKLFPRSDRSPVMIPHPFQPLNEATGGRLVKVGRVSRGFYISECLEFRPLEHHHHHH”, with “not soluble”; and “MSLKIIAFYLPQFHQIKENDRWWGKGFTEWTNTKSAQPLFSGHYQPREPYQDFYYDLTTPSVRKWQAEIAKAYGIYGFCYYHYWFKGKRLLETPFNEVLKMKEPDFPFCLSWANEPWTKSWDGLDKHILMPQDYGDISDWKEHFDYLLQAFQDERYIYIDDKPLFIIYRPGHIPDCEKMLNYWNALARENGLKGIYFAETLNSFPLPNINGFDASIQFEPFYTIAHDSSSDINKVIYDSDMQLNVWDYDKVWMYILQRSLPKKKTFPGAFVDWDNTARRKNANSSIFVGSTPEKFTIYLSKQIHRTYSFYNSEFLFINAWNEWAEGTYLEPDKKYGFSYLEGVKNAIDRGMKAYKKDEGHHHHHH”, with “soluble”.
In the case of “MAHHHHHHMDTRMKDLSFKVVLLGEGRVGKTSLISRYVHNAFDEKEASTVQASMHSSKAVPINDASSAPGAIREVDLALWDTAGQERFHALAPMYYRNADGAIIVYDVTDADTLRKVRTWAKELYAVVGEGKIQLVLCGNKADTPLAEREVSEGEGAAMAAELGASHFFASAKTGQNVAEVFSAMATQVARSREVTGMGGGVAAGGSSGSSGGGAYTGISGRTPSRSRARRGLMVVTEDGEAVTPGRSSPCEGRVYGGITPPRAHRYGSSGTNQPITLSADGSPDAAAAANKSGCC” it was “soluble”.
Then “MTEHLDVVIVGAGISGVSAAWHLQDRCPTKSYAILEKRESMGGTWDLFRYPGIRSDSDMYTLGFRFRPWTGRQAIADGKPILEYVKSTAAMYGIDRHIRFHHKVISADWSTAENRWTVHIQSHGTLSALTCEFLFLCSGYYNYDEGYSPRFAGSEDFVGPIIHPQHWPEDLDYDAKNIVVIGSGATAVTLVPALADSGAKHVTMLQRSPTYIVSQPDRDGIAEKLNRWLPETMAYTAVRWKNVLRQAAVYSACQKWPRRMRKMFLSLIQRQLPEGYDVRKHFGPHYNPWDQRLCLVPNGDLFRAIRHGKVEVVTDTIERFTATGIRLNSGRELPADIIITATGLNLQLFGGATATIDGQQVDITTTMAYKGMMLSGIPNMAYTVGYTNASWTLKADLVSEFVCRLLNYMDDNGFDTVVVERPGSDVEERPFMEFTPGYVLRSLDELPKQGSRTPWRLNQNYLRDIRLIRRGKIDDEGLRFAKRPAPVGV”, with “soluble”; and “MKMEVPQVDLPLEVLAWTKVTEDILNIYKQSCRLQACIFAICTEGTMKVSINLLEYEVHPNDLITLLPGTIIQFREKAEKVSLCFAGFSAKCIGHINLLTTIGNAYPKLIEQPIIPLSENIADYLKEYFALLSHASCDESFKMDSKLADLSLQTILTSIQLMYRNYSGNNHSNRKKEICRKLIQLITEHYKDQRCAQFYADQLGISLQHLSTTVKQVTGKSVLDTIAYIVIIDAKAQLKGTDMTIQEIAYSLNFPNPSFFCKFFRRHVGMSPLEFRNS”, with “not soluble”; and “MLSKISESLANLSGAERKVAECALAEPKWFVHAAVAEIAERASVSQPTVIRFCRSLGYKGLPEFKLALSASIGHEGMPYVHEELNADDDMASVVEKVLGNAAASL”, with “not soluble”.
“MSLMPLLDKLREQYGVGPVCSELHIAPSTYYHCQQQRHHPDKRSARAQHDDWLKREIQRVYDENHQVYGVRKVWRQLLREGIRVARCTVARLMAVMGLAGVLRGKKVRTTISRKAVAAGDRVNRQFVAERPDQLWVADFTYVSTWQGFVYVAFIIDVFAGYIVGWRVSSSMETTFVLDALEQALWARRPSGTIHHSDKGSQYVSLAYTERLKEAGLLASTGSTGDSYDNAMAESINGLYKAEVIHRKSWKNRAEVELATLTWVDWYNNRRLLGRLGHAPPAEAEKAYYASIGNDDLAAEGHHHHHH”: the “soluble on expression in E. coli” value is reported as “not soluble”.
In the case of “MRRYASYPTYSSVHPVGLISRVSGASGIGCRMRRYASYPTYSSVHPVGLISRVSGASGIGCRMRRYASYPTYSSVHPVGLISHVSGASGIGCRMRRHPSYPTYSSVHLVGLISRVSDASGIGCRIQSTGVFYFTWLRANRLSSFSSYWLEHHHHHH” it was “not soluble”.
Then “MSWWKRIFSRSESSTTESNSASSLPAADLDDDLLVEVKNLVAITGPKMPYELARLLKISHARATRLAAAANAQNPTPSRARTSDAQAQQPAAASPKPPAEPVAAEPKKKRAKKATPVEAGLPPLTGKITGGHACAFDVVGESYYQPALRRLRNGRHMATDNDFVADIVAEPDNPHDPNACAVYIEGFKVGYLPRDAAADFQQQVADMGVTGTWRLQTKAKLSGGWGDRPMVGVLLSLPKSLEHHHHHH”, with “not soluble”; and “MKSEKETIYDYAAELKLLSFKEELECTLSLAAEENWNHLQFLTELLGKESARRRECRRRSRIRSAGFPQMKYLHELVMEDMPKEAQVILPELETLDFIRQGRNLVLYGNPGTGKTHIATALGIKACQQDFTVLFTSVPVLLTQIREAKSAKTLRTLQLRFEKYDLVICDEFGYVSCDKEGGELLFNHLSLRAGKKATIITTNLAFNRWNEIIKDKVLVAAMVDRLTHKAYLVNMTGLSYRLKETQKMRQDKLEHHHHHH”, with “not soluble”.
For the sequence “MRKPKITVIGGGTGSPVILKSLREKDVEIAAIVTVADDGGSSGELRKNMQQLTPPGDLRNVLVAMSDMPKFYEKVFQYRFSEDAGAFAGHPLGNLIIAGLSEMQGSTYNAMQLLSKFFHTTGKIYPSSDHPLTLHAVFQDGTEVAGESHIVDHRGIIDNVYVTNALNDDTPLASRRVVQTILESDMIVLGPGSLFTSILPNIVIKEIGRALLETKAEIAYVCNIMTQRGETEHFTDSDHVEVLHRHLGRPFIDTVLVNIEKVPQEYMNSNRFDEYLVQVEHDFVGLCKQVSRVISSNFLRLENGGAFHDGDLIVDELMRIIQVKKLEHHHHHH”, the “soluble on expression in E. coli” value is “soluble”.
In the case of “MVCLQRICYEKIFLKKKIIATGTIWMSNMQQINNASVRPVSAYNTKHLQIPAIALLQSSPLPEQAIRTFSRALLTPTNHLFVNGRYIRTGLISGFDSRKLSFFQRIYLFLKSRFFTENKSVKISAVWAHDSWSNNYFHWFNDTLPRLFLLSKQIEDSVAVLPVELSKITFIVESLELLKIEHQWIDQKKSHRFESLSVLHTATLQPDINPLLQKQMRDAVFSAMKIDPQERPFRKIYISRAHARYRKIINEQELLPVLKKYGYDIIYPETYSFKEQVKLFAESNALISIHGAGHTNCMFMKQDAKVMEIRNTEWESQPLCFWGLANIFELKWEYITATRVSEVSNFNDVFIAPHIFEESLRTFENIKLEHHHHHH” it was “not soluble”.

Source of the values: the DeepSol protein solubility set.
